According to article doi:10.1101/2020.11.23.395327:

Key:
[1] = biological target: PII(WT)-His, signaling protein PII from Synechocystis sp. PCC 6803 (Synechocystis sp. PCC 6803) (UniProt Q55247); test: BLI
[2] = biological target: PII(S49E), phosphomimetic variant (Synechocystis sp. PCC 6803) (UniProt Q55247); test: BLI

| binding signal, fold lower than that of GST-PirA [1] [fold] | Kd [2] [nM] | Kd [1] [nM] | Substance |
| --- | --- | --- | --- |
| 6 |  |  | tag-free PirA (natural protein) |
|  | 2500 | 2900 | GST-PirA (GST-tagged PII-interacting regulator of arginine synthesis, Ssr0692) (natural protein) |
